What was measured:
Assay in all cases: cell-based or functional assay
[1] = target: HIV-1 Env 426c.DM (N460D.N463D), Env-pseudotyped virus produced in 293T cells (HIV-1 clade C strain 426c)
[2] = target: HIV-1 Env 426c.TM (N276D.N460D.N463D), Env-pseudotyped virus produced in 293T cells (HIV-1 clade C strain 426c)
[3] = target: HIV-1 clade C strain 426c Env on Env-pseudotyped virus produced in 293T cells (HIV-1)
[4] = target: HIV-1 clade C strain 426c Env on Env-pseudotyped virus produced in 293s/GnTI-/- cells (Man5-enrichment) (HIV-1)
[5] = target: CH0505.w4.3 Env, Env-pseudotyped virus produced in 293T cells (HIV-1)
[6] = target: CH0505TF.gly3.197 Env, Env-pseudotyped virus produced in 293S GnTI- cells (Man5-enriched) (HIV-1)
[7] = target: CH0505TF Env, Env-pseudotyped virus produced in 293S GnTI- cells (Man5-enriched) (HIV-1)
[8] = target: CH0505TF.gly4 Env, Env-pseudotyped virus produced in 293T cells (HIV-1)
[9] = target: HIV-1 426c.TM (N276D/N460D/N463D) Env on Env-pseudotyped virus produced in 293s/GnTI-/- cells (Man5-enrichment) (HIV-1)
[10] = target: CH0505TF.G458Y Env, Env-pseudotyped virus produced in 293T cells (HIV-1)
[11] = target: CH0505TF.gly3.276 Env, Env-pseudotyped virus produced in 293T cells (HIV-1)
[12] = target: CH0505TF Env, Env-pseudotyped virus produced in 293T cells (HIV-1)
[13] = target: HIV-1 Env 426c.TM4 (S278R.G471S.N460D.N463D), Env-pseudotyped virus produced in 293T cells (HIV-1 clade C strain 426c)
[14] = target: HIV-1 Env 426c.SM (N276D), Env-pseudotyped virus produced in 293S GnTI- cells (Man5-enriched) (HIV-1 clade C strain 426c)
[15] = target: HIV-1 Env 426c, Env-pseudotyped virus produced in 293T cells (HIV-1 clade C strain 426c)
[16] = target: HIV-1 Env 426c.TM4 (S278R.G471S.N460D.N463D), Env-pseudotyped virus produced in 293S GnTI- cells (Man5-enriched) (HIV-1 clade C strain 426c)
[17] = target: HIV-1 Env 426c.TM (N276D.N460D.N463D), Env-pseudotyped virus produced in 293S GnTI- cells (Man5-enriched) (HIV-1 clade C strain 426c)
[18] = target: CH0505TF.gly3.197 Env, Env-pseudotyped virus produced in 293T cells (HIV-1)
[19] = target: CH0505TF.gly3.461 Env, Env-pseudotyped virus produced in 293S GnTI- cells (Man5-enriched) (HIV-1)
[20] = target: HIV-1 426c.DM (N460D/N463D) Env on Env-pseudotyped virus produced in 293s/GnTI-/- cells (Man5-enrichment) (HIV-1)
[21] = target: CH0505TF.G458Y Env, Env-pseudotyped virus produced in 293S GnTI- cells (Man5-enriched) (HIV-1)
[22] = target: HIV-1 Env 426c, Env-pseudotyped virus produced in 293S GnTI- cells (Man5-enriched) (HIV-1 clade C strain 426c)
[23] = target: HIV-1 426c.TM (N276D/N460D/N463D) Env on Env-pseudotyped virus produced in 293T cells (HIV-1)
[24] = target: HIV-1 426c.SM (N276D) Env on Env-pseudotyped virus produced in 293s/GnTI-/- cells (Man5-enrichment) (HIV-1)
[25] = target: HIV-1 426c.SM (N276D) Env on Env-pseudotyped virus produced in 293T cells (HIV-1)
[26] = target: HIV-1 Env 426c.DM (N460D.N463D), Env-pseudotyped virus produced in 293S GnTI- cells (Man5-enriched) (HIV-1 clade C strain 426c)
[27] = target: CH0505TF.gly3.276 Env, Env-pseudotyped virus produced in 293S GnTI- cells (Man5-enriched) (HIV-1)
[28] = target: CH0505TF.gly4 Env, Env-pseudotyped virus produced in 293S GnTI- cells (Man5-enriched) (HIV-1)
[29] = target: HIV-1 426c.DM (N460D/N463D) Env on Env-pseudotyped virus produced in 293T cells (HIV-1)
[30] = target: CH0505TF.gly3.461 Env, Env-pseudotyped virus produced in 293T cells (HIV-1)
[31] = target: HIV-1 Env 426c.SM (N276D), Env-pseudotyped virus produced in 293T cells (HIV-1 clade C strain 426c)

Substance	IC50 (µg/ml) in TZM-bl [1] [µg/mL]	IC50 (µg/ml) in TZM-bl [2] [µg/mL]	ID50/IC50 in TZM-bl [3] [µg/mL]	ID50/IC50 in TZM-bl [4] [µg/mL]	IC50 (µg/ml) in TZM-bl [5] [µg/mL]	IC50 (µg/ml) in TZM-bl [6] [µg/mL]	IC50 (µg/ml) in TZM-bl [7] [µg/mL]	IC50 (µg/ml) in TZM-bl [8] [µg/mL]	ID50/IC50 in TZM-bl [9] [µg/mL]	IC50 (µg/ml) in TZM-bl [10] [µg/mL]	IC50 (µg/ml) in TZM-bl [11] [µg/mL]	IC50 (µg/ml) in TZM-bl [12] [µg/mL]	IC50 (µg/ml) in TZM-bl [13] [µg/mL]	IC50 (µg/ml) in TZM-bl [14] [µg/mL]	IC50 (µg/ml) in TZM-bl [15] [µg/mL]	IC50 (µg/ml) in TZM-bl [16] [µg/mL]	IC50 (µg/ml) in TZM-bl [17] [µg/mL]	IC50 (µg/ml) in TZM-bl [18] [µg/mL]	IC50 (µg/ml) in TZM-bl [19] [µg/mL]	ID50/IC50 in TZM-bl [20] [µg/mL]	further results
HJ16 (antibody)	> 25	> 25	> 25	> 25	> 25	> 25	> 25	> 25	> 25	> 25	> 25	> 25	> 25	> 25	> 25	> 25	> 25	> 25	> 25	> 25	IC50 (µg/ml) in TZM-bl [21]: > 25 µg/mL; IC50 (µg/ml) in TZM-bl [22]: > 25 µg/mL; ID50/IC50 in TZM-bl [23]: > 25 µg/mL; ID50/IC50 in TZM-bl [24]: > 25 µg/mL; ID50/IC50 in TZM-bl [25]: > 25 µg/mL; IC50 (µg/ml) in TZM-bl [26]: > 25 µg/mL; IC50 (µg/ml) in TZM-bl [27]: > 25 µg/mL; IC50 (µg/ml) in TZM-bl [28]: > 25 µg/mL; ID50/IC50 in TZM-bl [29]: > 25 µg/mL; IC50 (µg/ml) in TZM-bl [30]: > 25 µg/mL; IC50 (µg/ml) in TZM-bl [31]: > 25 µg/mL
PG9 (antibody)	> 5	> 5	> 5	> 5	1.8	0.06	0.11	0.21	> 5	0.1	0.17	0.19	> 5	> 5	> 5	> 5	> 5	0.24	0.05	> 5	IC50 (µg/ml) in TZM-bl [21]: 0.04 µg/mL; IC50 (µg/ml) in TZM-bl [22]: > 5 µg/mL; ID50/IC50 in TZM-bl [23]: > 5 µg/mL; ID50/IC50 in TZM-bl [24]: > 5 µg/mL; ID50/IC50 in TZM-bl [25]: > 5 µg/mL; IC50 (µg/ml) in TZM-bl [26]: > 5 µg/mL; IC50 (µg/ml) in TZM-bl [27]: 0.04 µg/mL; IC50 (µg/ml) in TZM-bl [28]: 0.02 µg/mL; ID50/IC50 in TZM-bl [29]: > 5 µg/mL; IC50 (µg/ml) in TZM-bl [30]: 0.22 µg/mL; IC50 (µg/ml) in TZM-bl [31]: > 5 µg/mL
PG16 (antibody)	> 5	> 5	> 5	> 5	0.03	0.03	0.08	0.1	> 5	0.03	0.1	0.09	> 5	> 5	> 5	> 5	> 5	0.05	0.02	> 5	IC50 (µg/ml) in TZM-bl [21]: 0.01 µg/mL; IC50 (µg/ml) in TZM-bl [22]: > 5 µg/mL; ID50/IC50 in TZM-bl [23]: > 5 µg/mL; ID50/IC50 in TZM-bl [24]: > 5 µg/mL; ID50/IC50 in TZM-bl [25]: > 5 µg/mL; IC50 (µg/ml) in TZM-bl [26]: > 5 µg/mL; IC50 (µg/ml) in TZM-bl [27]: 0.02 µg/mL; IC50 (µg/ml) in TZM-bl [28]: 0.02 µg/mL; ID50/IC50 in TZM-bl [29]: > 5 µg/mL; IC50 (µg/ml) in TZM-bl [30]: 0.1 µg/mL; IC50 (µg/ml) in TZM-bl [31]: > 5 µg/mL

Reference: patent US20230140293A1
